Consider seven molecules from US20260167718A1 (Merck Sharp & Dohme, published 2026).

Where a chain is given by its changes, count along the chain named.

First the molecules themselves.
B1: Rat anti-ILT3 mAb 17H12 IgG1/Kappa (antibody, V domains shown)
VH: EVQLVESGGGLVQPGRSMKLSCAASGFTFSNFDMAWVRQAPTRGLEWVSSITYDGGSTSYRDSVKGRFTISRDNAKGTLYLQMDSLRSEDTATYYCTTVESIATISTYFDYWGQGVMVTVSS
VL: DIVLTQSPALAVSLGQRATISCRASQSVSMSRYDLIHWYQQKPGQQPKLLIFRASDLASGIPARFSGSGSGTDFTLTINPVQADDIATYYCQQTRKSPPTFGGGTRLELK
notes: Rat IgG1/Kappa; also called p17H12; LB190.17H121A1
B2: Mouse anti-ILT3 mAb 1G12 IgG2a/Kappa (antibody, V domains shown)
VH: QVQMQQSGTELMKPGASMKISCKATGYTFSTYWIQWIKQRPGHGLEWIGEILPGSGTTNYNENFKGKATFSADTSSNTAYIHLSSLTSEDSAVFYCARRLGRGPFDYWGQGTTLTVSS
VL: DIQMTQSPSSLSASLGGKVTITCEASQDINKHIDWYQHQPGRGPSLLIHYASILQPGIPSRFSGSGSGRDYSFSITSLEPEDIATYYCLQYDNLLPTFGGGTKLEIK
notes: Mouse IgG2a/Kappa; also called p1G12; LB182.1G12.1B1
B3: Rat anti-ILT3 mAb 24A4 IgG2a/Kappa (antibody, V domains shown)
VH: QVQLKESGPGLVQASETLSLTCTVSGFSLTSYCVNWVRQPSGKGPEWLGRFWYDEGKVYNLTLESRLSISGDTSKNQVFLKMNRLRTDDTGTYYCTRDRDTLGITGWFAYWGQGTLVTVSS
VL: ETVMTQSPTSLSASIGERVTLNCKASQSVGINVDWYQQTPGQSPKLLIYGSANRHTGVPDRFTGSGFGSGFTLTISNVEPEDLGVYYCLQYGSVPYTFGPGTKLELK
notes: Rat IgG2a/Kappa; also called p24A4; LB184.24A4.1A1
B4: Rat anti-ILT3 mAb 20E4 IgG2a/Kappa (antibody, V domains shown)
VH: QVQLKESGPGLVQASETLSLTCTVSGFSLTSYSVNWVRQPSGKGLEWMGRFWYDGGTAYNSTLESRLSISGDTSKNQVFLKMNSLQTDDTGTYYCTRDRDTMGITGWFAYWGQGTLVTVSP
VL: B3 VL with I31V, G70D, P100A
notes: Rat IgG2a/Kappa; also called p20E4; LB184.20E4.1E1.1D1
B5: Rat anti-ILT3 mAb 37C8 IgG2a/Kappa (antibody, V domains shown)
VH: B3 VH with L102M
VL: B3 VL
notes: Rat IgG2a/Kappa; also called p37C8; LB184.37C8.1A3.1B1
B6: Mouse anti-ILT3 mAb 11D1 IgG2b/Kappa (antibody, V domains shown)
VH: QVQLQQSGAELMKPGASVKISCKATGYTFRTYWIEWVKQRPGHGLEWIGEILPGNGNTHFNENFKDKATFTADTSSNAAYMQLSSLTSEDSAVYYCVRRLGRGPFDFWGQGTTLTVSS
VL: DIQMTQSPSSLSVSLGGKVTITCKASQDINEYIGWYQRKPGKGPRLLIHYTSTLQSGIPSRFSGSGSGRDYSLSISNLEPEDIATYYCLQYANPLPTFGGGTKLEIK
notes: Mouse IgG2b/Kappa; also called p11D1; LB182.11D1.1A1
B7: Rat anti-ILT3 mAb 16B1 IgG2a/Kappa (antibody, V domains shown)
VH: B3 VH with S31N, Y53F, V58A, K81R, R84S, T87A, L102V
VL: B3 VL with G70D
notes: Rat IgG2a/Kappa; also called p16B1; LB184.16B1.1D2

The first experiment addresses T1, human ILT3 expressed on cells (human, UniProt Q8NHJ6 22-448).
T1 construct: whole, on cells; also called huILT3; LILRB4
The experiment in a line: cELISA, CHO human ILT3 cells.
What is called EC50 is the concentration that produces a half-maximal response. For the molecule B1, the concentration for a half-maximal effect (EC50) worked out at 139 µg/mL.

For the molecule B2, it took 39.2 µg/mL to reach a half-maximal effect (EC50).

Molecule B3 gave an EC50 of 21.4 µg/mL.

Take B4: the EC50 was determined as 1.99 µg/mL.

B5 came in with an EC50 of 7.72 µg/mL.

Consider B6, for which it took 50.5 µg/mL to reach a half-maximal effect (EC50).

In the next experiment the target is T2, Rhesus monkey ILT3 expressed on CHO-K1 cells (rhesus monkey (Macaca mulatta)).
T2 construct: whole, on cells; also called rhILT3; CHO-rhesus ILT3
The experiment in a line: cELISA, CHO rhesus ILT3 cells.
B3 yielded an EC50 of 21.3 µg/mL.

In the case of B4, the EC50 was 18 µg/mL.

In the case of B5, the 50% effective concentration (EC50) was 9.48 µg/mL.

Another experiment addresses T3, Human ILT3 (LILRB4) extracellular domain with C-terminal His Tag (human, UniProt Q8NHJ6 22-259).
T3 construct: the claims count residues 1-238 as the extracellular domain; also called human ILT3-His; ILT3_H
The experiment is described as follows: SPR (Biacore), human ILT3-His.
Broadly, the Kd is a measure of binding affinity in units of concentration. For B1, the Kd worked out at 592 pM.

In turn, B2 displayed a Kd of 16900 pM.

In the case of B3, the affinity, expressed as Kd, was 20.5 pM.

The molecule B4 had a Kd of 6990 pM.

Molecule B5 gave a Kd of 11.8 pM.

In the case of B7, the Kd was 95.7 pM.

On to B6, for which the Kd was 14100 pM.

For another experiment, the target named is T4, rhesus ILT3-His tagged recombinant protein (rhesus monkey (Macaca mulatta)).
T4 construct: also called ILT3_MM; not shown: His tag
T4 chain: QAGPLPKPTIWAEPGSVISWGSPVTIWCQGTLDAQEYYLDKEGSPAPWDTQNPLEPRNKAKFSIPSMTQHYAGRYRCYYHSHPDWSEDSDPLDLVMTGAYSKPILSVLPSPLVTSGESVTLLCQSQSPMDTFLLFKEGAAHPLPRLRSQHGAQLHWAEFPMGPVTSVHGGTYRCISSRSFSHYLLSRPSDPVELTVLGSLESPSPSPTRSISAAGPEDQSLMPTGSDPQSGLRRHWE
The experiment is described as follows: SPR (Biacore), rhesus ILT3-His. A general note: In SPR one partner is held on a chip, and binding of the other changes the refractive index at the surface.
With B1, the binding result is recorded as “no binding”.

As to B2, the binding result is given as “no binding”.

As for B3, the Kd stood at 126 pM.

As for B4, the Kd amounted to 18000 pM.

For B5, the Kd came to 150 pM.

B7: the Kd was found to be 259 pM.

The target of another experiment is T2, Rhesus monkey ILT3 expressed on CHO-K1 …. The experiment is described as follows: cELISA, CHO rhesus ILT3 cells. The source holds these as a separate data set. Here is the method:
(§1) Mouse anti-human ILT3 antibodies were tested for binding to human ILT3, and cross-reactivity to Rhesus monkey ILT3, human ILT5, human ILT7, human ILT8, and human ILT11 expressing CHO-K1 cells using a cell-based ELISA format. CHO-K1 cells were plated in 96-well tissue-culture plates in 50 μL of DMEM/F12, 10% BCS and gentamycin (CHO-K1 media). Cells were plated at either 2×10⁴ cells/well two days prior to the assay or 4×10⁴ cells/well one day prior to the assay. Media was removed from the wells prior to adding the test samples. Purified antibody was serially-diluted in CHO-K1 media and added to the CHO-K1 plates. The samples were incubated at room temperature for 30-60 minutes and plates were washed three times with PBS/05% Tween-20 using the cell wash program on the Biotek EL405x Select CW plate washer. Binding was detected using an HRP-conjugated goat anti-mouse IgG (Southern Biotech cat #1031-05) secondary antibody added at a 1:2000 dilution in CHO-K1 media and incubated at room temperature for 30-60 minutes. Assay plates were washed as above and developed with TMB and stopped with TMB stop solution (KPL cat #50-85-06). The absorbance at 450 nm—620 nm was determined. Mouse IgG1 (MIgG1) served as a control.
On to B3, for which the EC50 was 0.0231 µg/mL.

For the molecule B4, the response was half-maximal at 0.018 µg/mL (EC50).

B5 yielded a half-maximal effective concentration (EC50) of 0.0095 µg/mL.

B7 yielded an EC50 of 0.0679 µg/mL.

The target of the next experiment is T1, human ILT3 expressed on cells. The experiment is described as follows: cELISA, CHO human ILT3 cells. This is another data set of the same source. Here is the method: as §1
Turning to B1, the EC50 is 0.139 µg/mL.

For B2, the EC50 came out at 0.0392 µg/mL.

Molecule B3 came in with an EC50 of 0.0214 µg/mL.

In the case of B4, a half-maximal response (EC50) required 0.002 µg/mL.

In turn, B5 registered an EC50 of 0.0077 µg/mL.

In turn, B7 had an EC50 of 0.0649 µg/mL.

B6 returned an EC50 of 0.0505 µg/mL.

Another experiment has as its target T4, rhesus ILT3-His tagged recombinant …. The experiment is described as follows: SPR (Biacore), rhesus ILT3-His. The source holds these as a separate data set. Summed up:
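Antibodies captured on anti-human Fc surface, with human or rhesus ILT3-His as analyte in HBS-EP+ running buffer; reference flow cell subtracted, regeneration with 3M MgCl₂. ka and kd obtained from 1:1 Langmuir fits, KD = kd/ka.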
For the molecule B3, the Kd stood at 126 pM.

On to B4, for which the Kd worked out at 18200 pM.

Take B5: the Kd came to 145 pM.

Consider B7, for which the Kd was determined as 259 pM.

For a further experiment, the target named is T3, Human ILT3 (LILRB4) extracellular …. The experiment in a line: SPR (Biacore), human ILT3-His. This is another data set of the same source.
For B3, binding was put at a Kd of 21 pM.

For the molecule B4, the Kd was 6990 pM.

Consider B5, for which binding was put at a Kd of 12 pM.

B7 came in with an equilibrium dissociation constant (Kd) of 96 pM.
